The target in this assay is Aurora B-phosphorylated WT His-PKM2 (human, UniProt P14618 1-531, phosphothreonine at 45 (by Aurora B in vitro)). As to the kind of experiment: pull-down.
Chain of Aurora B-phosphorylated WT His-PKM2 (P14618 whole entry): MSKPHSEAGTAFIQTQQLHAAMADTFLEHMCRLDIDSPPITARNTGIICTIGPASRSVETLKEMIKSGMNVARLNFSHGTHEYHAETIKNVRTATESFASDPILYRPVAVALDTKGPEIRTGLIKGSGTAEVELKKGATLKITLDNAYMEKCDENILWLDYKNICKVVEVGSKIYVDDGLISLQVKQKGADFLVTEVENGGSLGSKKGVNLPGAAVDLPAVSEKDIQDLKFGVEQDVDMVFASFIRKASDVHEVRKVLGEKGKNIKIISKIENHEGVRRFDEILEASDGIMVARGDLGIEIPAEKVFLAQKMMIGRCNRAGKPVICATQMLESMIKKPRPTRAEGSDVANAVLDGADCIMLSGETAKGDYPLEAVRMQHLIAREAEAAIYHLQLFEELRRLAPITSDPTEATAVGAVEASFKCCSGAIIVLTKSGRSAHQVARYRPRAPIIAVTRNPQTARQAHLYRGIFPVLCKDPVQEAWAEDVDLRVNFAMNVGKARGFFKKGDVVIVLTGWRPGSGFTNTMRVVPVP

B1: GST-MLC2 (wild type, recombinant) (natural protein)
chain: MAPKKAKKRAGGANSNVFSMFEQTQIQEFKEAFTIMDQNRDGFIDKNDLRDTFAALGRVNVKNEEIDEMIKEAPGPINFTVFLTMFGEKLKGADPEETILNAFKVFDPEGKGVLKADYVREMLTTQAERFSKEEVDQMFAAFPPDVTGNLDYKNLVHIITHGEEKD
For B1, the binding result is listed as “binds”.
